Measured values as given in article PMC13041742, “Nonlinear stiffness of NompC gating spring and its implication in mechanotransduction” (Science Advances, 2026).

Molecular target: the molecule itself
Experiment: negative-stain EM with 2D class averaging; purified NompC-Δ12; raw micrographs and 2D class averages

B1: NompC-Δ12 (complex, Drosophila, UniProt E0A9E1 1-1732, looked up)
chain: MSQPRGGRGGGRGGGVGRKTPSSLTGPPDESATPSERATPASKADSDPKDDSSSNGDKKDMDLFPAPKPPSAGASIRDTANKVLGLAMKSEWTPIEAELKKLEKYVANVGEDGNHIPLAGVHDMNTGETPLHMACRACHPDIVRHLIETVKEKHGPDKATTYINSVNEDGATALHYTCQITKEEVKIPESDKQIVRMLLENGADVTLQTKTALETAFHYCAVAGNNDVLMEMISHMNPTDIQKAMNRQSSVGWTPLLIACHRGHMELVNNLLANHARVDVFDTEGRSALHLAAERGYLHVCDALLTNKAFINSKSRVGRTALHLAAMNGFTHLVKFLIKDHNAVIDILTLRKQTPLHLAAASGQMEVCQLLLELGANIDATDDLGQKPIHVAAQNNYSEVAKLFLQQHPSLVNATSKDGNTCAHIAAMQGSVKVIEELMKFDRSGVISARNKLTDATPLQLAAEGGHADVVKALVRAGASCTEENKAGFTAVHLAAQNGHGQVLDVLKSTNSLRINSKKLGLTPLHVAAYYGQADTVRELLTSVPATVKSETPTGQSLFGDLGTESGMTPLHLAAFSGNENVVRLLLNSAGVQVDAATIENGYNPLHLACFGGHMSVVGLLLSRSAELLQSQDRNGRTGLHIAAMHGHIQMVEILLGQGAEINATDRNGWTPLHCAAKAGHLEVVKLLCEAGASPKSETNYGCAAIWFAASEGHNEVLRYLMNKEHDTYGLMEDKRFVYNLMVVSKNHNNKPIQEFVLVSPAPVDTAAKLSNIYIVLSTKEKERAKDLVAAGKQCEAMATELLALAAGSDSAGKILQATDKRNVEFLDVLIENEQKEVIAHTVVQRYLQELWHGSLTWASWKILLLLVAFIVCPPVWIGFTFPMGHKFNKVPIIKFMSYLTSHIYLMIHLSIVGITPIYPVLRLSLVPYWYEVGLLIWLSGLLLFELTNPSDKSGLGSIKVLVLLLGMAGVGVHVSAFLFVSKEYWPTLVYCRNQCFALAFLLACVQILDFLSFHHLFGPWAIIIGDLLKDLARFLAVLAIFVFGFSMHIVALNQSFANFSPEDLRSFEKKNRNRGYFSDVRMHPINSFELLFFAVFGQTTTEQTQVDKIKNVATPTQPYWVEYLFKIVFGIYMLVSVVVLINLLIAMMSDTYQRIQAQSDIEWKFGLSKLIRNMHRTTTAPSPLNLVTTWFMWIVEKVKARMKKKKRPSLVQMMGIRQASPRTKAGAKWLSKIKKDSVALSQVHLSPLGSQASFSQANQNRIENVADWEAIAKKYRALVGDEEGGSLKDSDAESGSQEGSGGQQPPAQVGRRAIKATLADTTK
notes: NompC (no mechanoreceptor potential C), Drosophila, NP_001245891.1, lacking the N-terminal 12 ankyrin repeats (amino acids 126 to 533); Full-length NompC with an internal deletion of residues 126-533; also called truncated NompC-Δ12; NompC complex with the N-terminal 12 ARs removed; not shown: SpyTag, N-terminal, kept; enhanced green fluorescent protein (after a 3C cleavage site), C-terminal, …
Q: With B1 as the protein, how does the “stoichiometry N” value read?
A: 4
